# Patent US20200369773A1 (CELDARA MEDICAL, published 2020)
# T1: FITC-recombinant mouse Fn14:human Fc (ENZO ALX-522-036F) (mouse, UniProt Q9CR75 28-80, FITC label (site not stated))
# T1 construct: Bought reagent; also called FITC-recombinant Fn14; recombinant Fn14; not shown: human Fc
# T1 sequence: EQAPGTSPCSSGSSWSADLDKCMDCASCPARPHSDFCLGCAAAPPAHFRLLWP
# Target: T1, FITC-recombinant mouse Fn14:human Fc …
# Test: flow cytometry; transduced mouse T cells stained with FITC-recombinant mouse Fn14:human Fc
# Protocol: Cell samples that were subjected to transduction with pFB vector containing the anti-Fn14 CAR and T2A+mtrCD19 (4A8H_mt19, 4A8L_mt19, 3G5H_mt19, 3G5L_mt19) construct or just the T2A+mtrCD19 (mt19) construct (from Day 8 of Example 1) were harvested, and 0.25×10⁶ cells in 100 μL of FACS buffer were placed in a 96 well round bottom plate. The plate was spun at 500 ref for 1 min at room temperature, and the supernatant was removed. Cells in each well were resuspended in 25 μL of Blocking buffer and incubated on ice for 10 min.
# Cells were then added with 150 μL of FACS buffer and spun at 500 ref for 2 min, and the supernatant was removed. This washing step was repeated once more with 200 μL of FACS buffer.
# For the same day FACS analysis, cells in each well were resuspended in 250 μL of FACS buffer and analyzed on flow cytometer. For the next day analysis, cells were diluted in 250 μL of Fixation buffer until analyzed the following day. Cells were stored on ice or 4° C., protected from light, until run on FACS machine.
row,Binder,% anti-Fn14 CAR^+ of CD3^+ cells (staining with FITC-recombinant Fn14) [%]
1,"mouse truncated CD19 (mtrCD19), mock construct without CAR (other, Negative control: mouse T cells transduced with a vector that encodes only mtrCD19 and no CAR; also called mt19; mock transduced cells) RPQKSLLVEVEEGGNVVLPCLPDSSPVSSEKLAWYRGNQSTPFLELSPGSPGLGLHVGSLGILLVIVNVSDHMGGFYLCQKRPPFKDIWQPAWTVNVEDSGEMFRWNASDVRDLDCDLRNRSSGSHRSTSGSQLYVWAKDHPKVWGTKPVCAPRGSSLNQSLINQDLTVAPGSTLWLSCGVPPVPVAKGSISWTHVHPRRPNVSLLSLSLGGEHPVREMWVWGSLLLLPQATALDEGTYYCLRGNLTIERHVKVIARSAVWLWLLRTGGWIVPVVTLVYVIFCMVSLVAFLYCQRAFILRRKRKRMT",1.6
2,"scFvP3G5VHVL-mCD28H-mCD28TM-mCD28CS-mCD3zICS (anti-Fn14 CAR) (receptor, Chimeric antigen receptor on transduced mouse T cells) QVQLQQSGPEVVRPGVSVKISCKGSGYTFTDYGIHWVKQSHAKSLEWIGVISTYNGYTNYNQKFKGKATMTVDKSSSTAYMELARLTSEDSAIYYCARAYYGNLYYAMDYWGQGTSVTVSSGGGGSGGGGSGGGGSDIVLTQSPASLAVSLGQRATISCRANKSVSTSSYSYMHWYQQKPGQPPKLLIKYASNLESGVPARFSGSGSGTDFILNIHPVEEEDAATYYCQHSRELPFTFGSGTKLEIKIKEKHLCHTQSSPKLFWALVVVAGVLFCYGLLVTVALCVIWTNSRRNRLLQSDYMNMTPRRPGLTRKPYQPYAPARDFAAYRPRAKFSRSAETAANLQDPNQLYNELNLGRREEYDVLEKKRARDPEMGGKQQRRRNPQEGVYNALQKDKMAEAYSEIGTKGERRRGKGHDGLYQGLSTATKDTYDALHMQTLAPR",10.8
3,"scFvP3G5VLVH-mCD28H-mCD28TM-mCD28CS-mCD3zICS (anti-Fn14 CAR) (receptor, Chimeric antigen receptor on transduced mouse T cells) DIVLTQSPASLAVSLGQRATISCRANKSVSTSSYSYMHWYQQKPGQPPKLLIKYASNLESGVPARFSGSGSGTDFILNIHPVEEEDAATYYCQHSRELPFTFGSGTKLEIKGGGGSGGGGSGGGGSQVQLQQSGPEVVRPGVSVKISCKGSGYTFTDYGIHWVKQSHAKSLEWIGVISTYNGYTNYNQKFKGKATMTVDKSSSTAYMELARLTSEDSAIYYCARAYYGNLYYAMDYWGQGTSVTVSSIKEKHLCHTQSSPKLFWALVVVAGVLFCYGLLVTVALCVIWTNSRRNRLLQSDYMNMTPRRPGLTRKPYQPYAPARDFAAYRPRAKFSRSAETAANLQDPNQLYNELNLGRREEYDVLEKKRARDPEMGGKQQRRRNPQEGVYNALQKDKMAEAYSEIGTKGERRRGKGHDGLYQGLSTATKDTYDALHMQTLAPR",11.4
